Results reported in the supplement of paper PMC9170038.

Test system: MS2 coat protein
Assay: apparent KD of MS2 coat protein; designed switch direction (-1 OFF switch, 1 ON switch): -1; higher = weaker reporter binding
Method in brief: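 Three titration conditions were used: no input, 200 uM small-molecule ligand, and an oligonucleotide input. In each, SNAP-549-labelled MS2 coat protein was raised from 0.7 or 1.5 nM, doubling, to 3 µM over designed RNA switches transcribed on Illumina chips by stalled E. coli RNA polymerase. Curve fits of normalised cluster fluorescence gave values whose per-design median over clusters is the apparent KD.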

[1] = Eterna round: R95, input ligand: FMN 200 uM
[2] = Eterna round: R95, input ligand: microRNA oligo, concentration not stated
[3] = Eterna round: R95, input ligand: none
[4] = input ligand: microRNA oligo, concentration not stated

| Sequence | apparent KD of MS2 coat protein [2] [nM] | apparent KD of MS2 coat protein (input ligand: FMN 200 uM) [nM] | apparent KD of MS2 coat protein (input ligand: none) [nM] | further results |
| --- | --- | --- | --- | --- |
| GUUUGCGCAGGAUAUACAUGAGGAUCACCCAUGUGAGAGAAAUAAGUGAGGAAGAAAAGUAGAAGGGCGUGACG [Mat - Exclusion 3 - Mod of Salish D71] (puzzle: Exclusion 3) | 34 |  |  | apparent KD of MS2 coat protein [1]: 171 nM; apparent KD of MS2 coat protein [3]: 42.8 nM |
| GUUUUAUAUGAAGGAUAUACUUAACAUGAGGAUCACCCAUGUGGUGUUGUGAGUGAGUGAGUUUAGUAGAAGGUCAAUUCUUUU [JMF's solution 99] (Eterna round: R96, puzzle: Exclusion NG 2) |  | 622 | 408 | apparent KD of MS2 coat protein [4]: 593 nM |
| GUUUUCAGACGGAGAUCCUACAUGAGGAUCACCCAUGUCUCUCAAGCUAAUUGCUCGUCUUAUUCUCCUCUGUUCUC [Elimod 39 - Jieux - Sensor, turn-off variant 1] (Eterna round: R97, puzzle: Sensor, turn-off variant 1) |  | 35.6 | 41 |  |
| GUUUUCAGACGGAGAUCCUACAUGAGGAUCACCCAUGUCUCUCUAGCUAAUUGCUCGUCUUAUUCUCCUCUGUUCUC [Elimod 38 - Jieux - Sensor, turn-off variant 1] (Eterna round: R97, puzzle: Sensor, turn-off variant 1) |  | 40 | 47.5 |  |
| UAAAACCUAGGAUAUACAUGAGGAUCACCCAUGUUCGAAGGAGCCCAAGUGACUUCUAGUAGAAGGAGGGCGAA [Aratisedso] (puzzle: Exclusion 3) | 18.8 |  |  |  |
| UAAAAGCUAGGAUAUAGAGACAGAAACUUGAGGAUCACCCAAGUGAGUCAAGCUAUGUCGCUAGAAGGAGCGAAAA [Qubetizaa] (Eterna round: R97, puzzle: Exclusion 5) |  | 278 | 32 |  |
| UAAAAGUGAGGAUAUACAUUAAGGUAAGUCCGGAUGCGAAGACAUGAGGAUCACCCAUGUAGAAGGCACACAAA [Aredge] (puzzle: Exclusion 2) | 32.1 |  |  |  |
| UAAACAAGCUAAAGAUCCUACAUGAGGAUCACCCAUGUGCUCGUCUUGUAACGUACUGUGACGAAAGUCACGGUACG [JL TOV1 3.10] (Eterna round: R97, puzzle: Sensor, turn-off variant 1) |  | 194 | 202 |  |
| UAAAUUAUUGUAAGGAUAUCAGUCCCGAAAGGGACUGAGAAGGUACAUGAGGAUCACCCAUGUGAAAUAAGAAU [Mod of Zala 15 - Jieux - Brourd's Mod of Exclusion 4] (Eterna round: R97, puzzle: Brourd's mod of Exclusion 4) |  | 53.1 | 22.1 |  |
| UAAAUUGCAAGCAGAUCCUACAUGAGGAUCACCCAUGUGCUCUGAAAUAACGCAGAAUUACUGCGAGCUCGUCUUAU [Winner reversed engineered 26] (Eterna round: R97, puzzle: Sensor, turn-off variant 1) |  | 80.9 | 94.3 |  |
| UAAAUUGGGUAGGAUAUGUUUGUUUAAAGAGCCACAGAAGGACCCACAUGAGGAUCACCCAUGUAUCACCUAUG [Eternabot (L2) Solution 60] (Eterna round: R97, puzzle: Exclusion 6) |  | 33.6 | 27.1 |  |
| UAACCACAUGAGGAUCACCCAUGUGAGGAUAUGUCCAUAUUCGGCAAAUCGGAUAUGGACAGAAGGCACACCGG [JR_Exclusion1_Sub010] (puzzle: Exclusion 1) | 40.7 |  |  |  |
| UAACUUCUUGUAAGGAUAUUGGCGCGAAAGCGCACCGAGAAGGUACAUGAGGAUCACCCAUGUGAAAUAAGAAU [Mod of Zala 13 - Jieux - Brourd's Mod of Exclusion 4] (Eterna round: R97, puzzle: Brourd's mod of Exclusion 4) |  | 47.5 | 27.2 |  |
| UAAGAGUGAGGAUAUACGUCGCUGGUCCGGAUGGACGCAUGACAUGAGGAUCACCCAUGUAGAAGGCACAAAAC [Enxela] (puzzle: Exclusion 2) | 26.8 |  |  |  |
| UAAGAUUACCGAGGAUAUGGUAAUUUUUGUUAACCAGAAGGCGGACUCAACAUGAGGAUCACCCAUGUAUAAAGGGUAUUAGUU [JR_ExcNG1_Sub040] (Eterna round: R96, puzzle: Exclusion NG 1) |  | 100 | 96.4 | apparent KD of MS2 coat protein [4]: 74.2 nM |
| UAAGCUACUGUCAGGAUAUCGUAAUUGGUGAACGACGAGAAGGGACAUGAGGAUCACCCAUGUCGAUGACUGGG [Eternabot (L2) Solution 97] (Eterna round: R97, puzzle: Brourd's mod of Exclusion 4) |  | 386 | 200 |  |
| UAAGUGUCAGGAUAUACAUGAGGAUCACCCAUGUGCCUCGCUACGGCCAGGCUCCCGUGUAGAAGGGAUCGUAA [Eternabot (Original) Solution 23] (Eterna round: R97, puzzle: Exclusion 3) |  | 110 | 61.8 |  |
| UAAUAAAGUGUGAGGAUAUGCUGGUCGAUAGAUCAGCAGAAGGCACAUGAGGAUCACCCAUGUAAUAUAUUUUA [Mat - Exclusion 4 - JL Mod - D46] (Eterna round: R96, puzzle: Brourd's mod of Exclusion 4) |  | 238 | 56.1 | apparent KD of MS2 coat protein [4]: 40.6 nM |
| UAAUAAAGUGUGAGGAUAUGCUGGUCGAUAGAUCAGCAGAAGGCACAUGAGGAUCACCCAUGUAAUAUAUUUUA [Mat - Exclusion 4 - JL Mod - D46] (puzzle: Brourd's mod of Exclusion 4) | 54.3 |  |  |  |
| UAAUAUCUGCAGGAUAUCGGUGUAGCACGCGUAUGAGAAGGGCAGACAUGAGGAUCACCCAUGUAUUAUAUCCG [Eternabot (L2) Solution 39] (Eterna round: R97, puzzle: Exclusion 6) |  | 34.8 | 24.5 |  |
| UAAUGCAAGUAAAGAUCCUACAUGAGGAUCACCCAUGUGCUCGUCUUAUAAAGUACUAUCACGAAAGUGAUAGUACA [Mat - Sensor v3 - turn-off var 1 - Eli Mod - D83] (puzzle: Sensor v3, turn-off variant 1) | 31.8 |  |  | apparent KD of MS2 coat protein [1]: 385 nM; apparent KD of MS2 coat protein [3]: 167 nM |
| UAAUUGUGAGGAUAUCUGGCUUCGAUCGUGAGAUCGAGGCUAGAGAAGGCACAUGAGGAUCACCCAUGUUCCUU [jl-ex4-4.10 salish99 mod] (Eterna round: R97, puzzle: Exclusion 4) |  | 85.2 | 21.5 |  |
